Details in all cases: 200 nM
The target of data set [1] is T1, Vhr2 (Saccharomyces cerevisiae) (UniProt P40041).
T1 sequence: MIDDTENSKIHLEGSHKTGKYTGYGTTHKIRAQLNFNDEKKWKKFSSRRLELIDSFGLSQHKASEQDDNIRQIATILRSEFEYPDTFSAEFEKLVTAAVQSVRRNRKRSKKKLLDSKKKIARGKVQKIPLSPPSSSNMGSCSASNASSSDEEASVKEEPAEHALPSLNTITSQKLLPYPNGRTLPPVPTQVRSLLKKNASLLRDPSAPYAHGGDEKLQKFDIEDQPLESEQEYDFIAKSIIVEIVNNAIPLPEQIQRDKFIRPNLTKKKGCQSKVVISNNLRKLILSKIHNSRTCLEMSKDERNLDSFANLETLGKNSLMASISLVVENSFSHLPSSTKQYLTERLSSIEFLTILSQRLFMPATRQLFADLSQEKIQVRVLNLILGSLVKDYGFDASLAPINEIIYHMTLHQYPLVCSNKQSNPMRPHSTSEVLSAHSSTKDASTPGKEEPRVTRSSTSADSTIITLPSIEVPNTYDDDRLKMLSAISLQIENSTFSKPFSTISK

Data set [2] deals with T2, Vhr1 (Saccharomyces cerevisiae) (UniProt P40522).
T2 sequence: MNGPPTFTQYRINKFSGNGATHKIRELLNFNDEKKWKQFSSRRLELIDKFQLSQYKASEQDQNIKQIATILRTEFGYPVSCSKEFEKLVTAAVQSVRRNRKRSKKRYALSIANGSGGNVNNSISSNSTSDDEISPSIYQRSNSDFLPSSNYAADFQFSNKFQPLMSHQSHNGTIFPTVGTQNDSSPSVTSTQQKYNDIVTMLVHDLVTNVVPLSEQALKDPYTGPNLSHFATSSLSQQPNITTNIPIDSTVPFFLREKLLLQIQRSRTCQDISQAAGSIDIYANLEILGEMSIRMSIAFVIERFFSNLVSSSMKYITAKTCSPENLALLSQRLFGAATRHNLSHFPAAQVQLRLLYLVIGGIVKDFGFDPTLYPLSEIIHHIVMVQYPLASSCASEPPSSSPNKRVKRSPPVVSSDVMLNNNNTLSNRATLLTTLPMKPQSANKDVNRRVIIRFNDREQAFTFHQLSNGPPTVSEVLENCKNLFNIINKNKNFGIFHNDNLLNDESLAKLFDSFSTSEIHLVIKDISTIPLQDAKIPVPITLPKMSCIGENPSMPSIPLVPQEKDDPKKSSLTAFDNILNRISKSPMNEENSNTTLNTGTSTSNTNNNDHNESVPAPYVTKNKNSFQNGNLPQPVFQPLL

The target in data set [3] is T3, Upc2 (Saccharomyces cerevisiae) (UniProt Q12151).
T3 sequence: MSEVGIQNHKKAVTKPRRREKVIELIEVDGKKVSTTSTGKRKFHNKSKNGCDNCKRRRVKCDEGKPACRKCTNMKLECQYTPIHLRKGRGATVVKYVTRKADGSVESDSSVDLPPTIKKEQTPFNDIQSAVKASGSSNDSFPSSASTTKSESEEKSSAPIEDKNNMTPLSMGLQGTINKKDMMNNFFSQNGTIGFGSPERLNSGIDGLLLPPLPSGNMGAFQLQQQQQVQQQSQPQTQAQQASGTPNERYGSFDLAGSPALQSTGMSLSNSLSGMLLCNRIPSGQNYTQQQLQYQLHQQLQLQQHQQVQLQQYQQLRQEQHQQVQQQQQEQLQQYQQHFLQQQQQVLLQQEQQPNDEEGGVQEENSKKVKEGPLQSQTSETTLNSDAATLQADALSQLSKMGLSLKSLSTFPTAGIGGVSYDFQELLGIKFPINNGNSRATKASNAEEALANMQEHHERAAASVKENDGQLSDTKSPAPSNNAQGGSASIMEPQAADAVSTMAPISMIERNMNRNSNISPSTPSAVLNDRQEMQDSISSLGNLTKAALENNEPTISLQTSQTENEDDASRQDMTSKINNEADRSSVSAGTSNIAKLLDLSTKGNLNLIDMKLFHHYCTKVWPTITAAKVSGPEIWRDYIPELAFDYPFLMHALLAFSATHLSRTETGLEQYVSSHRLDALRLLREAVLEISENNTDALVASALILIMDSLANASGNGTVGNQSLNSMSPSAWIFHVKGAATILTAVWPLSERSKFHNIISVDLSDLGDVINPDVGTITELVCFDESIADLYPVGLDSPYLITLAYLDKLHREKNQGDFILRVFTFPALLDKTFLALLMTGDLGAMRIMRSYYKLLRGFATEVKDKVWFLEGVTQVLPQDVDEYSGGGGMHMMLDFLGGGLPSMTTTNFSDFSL

The target in data set [4] is T4, Ecm22 (Saccharomyces cerevisiae) (UniProt Q05958).
T4 sequence: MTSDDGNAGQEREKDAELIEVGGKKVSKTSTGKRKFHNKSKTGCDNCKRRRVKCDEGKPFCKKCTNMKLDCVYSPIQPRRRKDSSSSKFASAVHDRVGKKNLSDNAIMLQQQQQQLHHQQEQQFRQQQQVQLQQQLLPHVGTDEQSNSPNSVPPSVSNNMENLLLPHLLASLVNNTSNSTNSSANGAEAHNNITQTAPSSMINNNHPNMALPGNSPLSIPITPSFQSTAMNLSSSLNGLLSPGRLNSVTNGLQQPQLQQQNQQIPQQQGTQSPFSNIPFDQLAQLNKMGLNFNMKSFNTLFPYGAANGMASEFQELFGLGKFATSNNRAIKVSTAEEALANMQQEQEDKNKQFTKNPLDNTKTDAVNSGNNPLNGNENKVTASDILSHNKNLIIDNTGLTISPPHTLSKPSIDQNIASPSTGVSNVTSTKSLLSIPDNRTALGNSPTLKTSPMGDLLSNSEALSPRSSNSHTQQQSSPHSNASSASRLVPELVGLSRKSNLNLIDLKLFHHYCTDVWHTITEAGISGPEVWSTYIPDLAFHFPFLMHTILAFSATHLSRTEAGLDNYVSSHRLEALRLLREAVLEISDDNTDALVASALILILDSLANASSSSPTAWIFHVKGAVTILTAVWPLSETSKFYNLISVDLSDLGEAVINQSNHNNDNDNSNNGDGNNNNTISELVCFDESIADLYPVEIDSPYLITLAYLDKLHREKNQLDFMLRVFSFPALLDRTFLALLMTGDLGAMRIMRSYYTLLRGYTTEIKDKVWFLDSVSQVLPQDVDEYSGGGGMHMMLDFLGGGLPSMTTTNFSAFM

On to “AATGACTC (double strand) [8-mer AATGACTC]”, for which the binding signal (PBM E-score (-0.5 to 0.5)) in data set [1] was 0.495.
In data set [2], “AGTGACTC (double strand) [8-mer AGTGACTC]” gave a binding signal (PBM E-score (-0.5 to 0.5)) of 0.481.
The sequence “ATAAACGA (double strand) [8-mer ATAAACGA]” showed a binding signal (PBM E-score (-0.5 to 0.5)) in data set [3] of 0.494.
In turn, “ATCGTATA (double strand) [8-mer ATCGTATA]” had a binding signal (PBM E-score (-0.5 to 0.5)) in data set [3] of 0.493.
In turn, “ATCGTTTA (double strand) [8-mer ATCGTTTA]” yielded a binding signal (PBM E-score (-0.5 to 0.5)) in data set [3] of 0.495.
In data set [1], “ATGACTAA (double strand) [8-mer ATGACTAA]” showed a binding signal (PBM E-score (-0.5 to 0.5)) of 0.494.
The same measure, in the same setting: to “ATGACTAC (double strand) [8-mer ATGACTAC]” belongs 0.494.
As for “ATGACTCA (double strand) [8-mer ATGACTCA]”, the binding signal (PBM E-score (-0.5 to 0.5)) was found to be 0.495 in data set [2] and 0.499 in data set [1].
With “ATGACTCC (double strand) [8-mer ATGACTCC]”, the binding signal (PBM E-score (-0.5 to 0.5)) was found to be 0.494 in data set [2] and 0.493 in data set [1].
In the same order, the values of “ATGAGTCA (double strand) [8-mer ATGAGTCA]” are 0.492 and 0.498.
Consider “CATGACTC (double strand) [8-mer CATGACTC]”, for which the binding signal (PBM E-score (-0.5 to 0.5)) in data set [2] is 0.485; in data set [1], 0.494.
Consider “CGGAGTCA (double strand) [8-mer CGGAGTCA]”, for which the binding signal (PBM E-score (-0.5 to 0.5)) in data set [2] is 0.485.
Sequence “CGTATACG (double strand) [8-mer CGTATACG]” registered a binding signal (PBM E-score (-0.5 to 0.5)) in data set [3] of 0.494.
“CTAAACGA (double strand) [8-mer CTAAACGA]”: the binding signal (PBM E-score (-0.5 to 0.5)) in data set [4] turned out to be 0.493; in data set [3], 0.496.
In the same order, the values of “CTATACGA (double strand) [8-mer CTATACGA]” are 0.496 and 0.498.
Turning to “CTCGTATA (double strand) [8-mer CTCGTATA]”, the binding signal (PBM E-score (-0.5 to 0.5)) worked out at 0.498 in data set [4] and 0.499 in data set [3].
In the same order, the values of “CTCGTTTA (double strand) [8-mer CTCGTTTA]” are 0.495 and 0.495.
As to “CTGACTCA (double strand) [8-mer CTGACTCA]”, the binding signal (PBM E-score (-0.5 to 0.5)) in data set [2] came to 0.49; in data set [1] it was 0.494.
“CTGAGTCA (double strand) [8-mer CTGAGTCA]”: the binding signal (PBM E-score (-0.5 to 0.5)) in data set [2] was found to be 0.489; in data set [1], 0.496.
In data set [2], “GAGTCACA (double strand) [8-mer GAGTCACA]” displayed a binding signal (PBM E-score (-0.5 to 0.5)) of 0.487.
Turning to “GAGTCACC (double strand) [8-mer GAGTCACC]”, the binding signal (PBM E-score (-0.5 to 0.5)) in data set [2] was 0.491; in data set [1], 0.496.
For the sequence “GAGTCATA (double strand) [8-mer GAGTCATA]”, the binding signal (PBM E-score (-0.5 to 0.5)) in data set [2] was found to be 0.484; in data set [1], 0.495.
With “GAGTCATC (double strand) [8-mer GAGTCATC]”, the binding signal (PBM E-score (-0.5 to 0.5)) amounted to 0.492 in data set [2] and 0.497 in data set [1].
“GATGACTA (double strand) [8-mer GATGACTA]” had a binding signal (PBM E-score (-0.5 to 0.5)) in data set [1] of 0.495.
For “GGAGTCAC (double strand) [8-mer GGAGTCAC]”, the binding signal (PBM E-score (-0.5 to 0.5)) in data set [2] was 0.485.
In the case of “GTATACGA (double strand) [8-mer GTATACGA]”, the binding signal (PBM E-score (-0.5 to 0.5)) in data set [4] stood at 0.492; in data set [3] it was 0.495.
On to “GTCGTATA (double strand) [8-mer GTCGTATA]”, for which the binding signal (PBM E-score (-0.5 to 0.5)) is 0.497 in data set [4] and 0.496 in data set [3].
In turn, “GTCGTTTA (double strand) [8-mer GTCGTTTA]” registered a binding signal (PBM E-score (-0.5 to 0.5)) in data set [3] of 0.494.
For “GTGACTCA (double strand) [8-mer GTGACTCA]”, the binding signal (PBM E-score (-0.5 to 0.5)) in data set [2] was determined as 0.496; in data set [1], 0.498.
Consider “GTGAGTCA (double strand) [8-mer GTGAGTCA]”, for which the figures for the binding signal (PBM E-score (-0.5 to 0.5)) in data set [2] and in data set [1] were 0.494 and 0.498, respectively.
“TAAACGAA (double strand) [8-mer TAAACGAA]” showed a binding signal (PBM E-score (-0.5 to 0.5)) in data set [3] of 0.494.
Turning to “TATACGAA (double strand) [8-mer TATACGAA]”, the binding signal (PBM E-score (-0.5 to 0.5)) in data set [4] was found to be 0.494; in data set [3], 0.495.
In the same order, the values of “TCGTATAA (double strand) [8-mer TCGTATAA]” are 0.498 and 0.497.
In the same order, the values of “TCGTTTAA (double strand) [8-mer TCGTTTAA]” are 0.494 and 0.497.
